From patent US20160355602A1 (Astellas, published 2016)
Where “and” joins values, the source holds several entries; their conditions need not be identical. Equal entries are not always repeated. Each block holds one binder with its values, some of them ahead of it.

What was measured:
[1] = molecular target: human TLR4/MD2 endogenously expressed on normal human peripheral blood mononuclear cells (human, UniProt O00206 24-839; Q9Y6Y9 19-160); test: cell-based or functional assay
[2] = molecular target: T1, human TLR2 endogenously expressed on cells (THP1-xBlue cells; normal human peripheral blood mononuclear cells) (human, UniProt O60603 21-784); test: cell-based or functional assay
[3] = molecular target: T2, human TLR4/MD2 protein (R&D Systems, 3146-TM/CF) (human, UniProt O00206 24-631; Q9Y6Y9 17-160, limits assumed); test: ELISA, human TLR4/MD2 protein immobilized on plate, detection with anti-human IgG-HRP
T2 construct: Bought recombinant complex; also called human TLR4 and MD2 complex
Procedure: (§1) In order to evaluate the binding activity of each of two bispecific antibodies prepared in Example 8 for human TLR2 and human TLR4, ELISA was carried out using a human TLR2 protein and a human TLR4/MD2 protein. 15 μL/well of a human TLR2 protein (R&D Systems, 2616-TR-050) diluted to a concentration of 10 μg/mL in PBS (Life Technologies, 10010-023) was added to a MaxiSorp 384-well plate Clear (Thermo Fisher Scientific Inc.), followed by immobilization at room temperature for 1 hour. Similarly, 15 μL/well of a human TLR4/MD2 protein (R&D Systems, 3146-TM/CF) was added at 10 μg/mL, followed by immobilization at room temperature for 1 hour. After 1 hour, the wells were washed three times with a washing solution (0.05% Tween-20-containing Tris-buffered saline (TBS)), and 100 μL/well of Blocking One (NACALAI TESQUE, INC., 03953-95) was added, followed by blocking at room temperature for 1 hour. The wells were washed again three times with a washing solution, 15 μL/well of two bispecific antibodies prepared in Example 8 was added to the well on which the human TLR2 protein was immobilized and the well on which the human TLR4/MD2 protein was immobilized. […] An absorbance at 450 nm was measured by using Safire2 (TECAN), and an EC50 value of each antibody for the human TLR2 protein and the human TLR4/MD2 protein was calculated.

[4] = molecular target: T3, human TLR2 protein (R&D Systems, 2616-TR-050) (human, UniProt O60603 21-590, limits assumed); test: ELISA, human TLR2 protein immobilized on plate, detection with anti-human IgG-HRP
T3 construct: Bought recombinant protein
Procedure: as §1

[5] = molecular target: T3, human TLR2 protein (R&D Systems, …); test: SPR (Biacore T200), human TLR2 protein captured by anti-His IgG on CM5 chip, antibody at 200 nM as analyte, bivalent analyte model
Procedure: To evaluate a binding activity of the fully human 31-5F5-2F3.m1 prepared in Example 4 for human TLR2, an SPR analysis was carried out.
In the SPR analysis, Biacore T200 (GE Healthcare Japan) was used to carry out analysis. An Anti-His IgG (enclosed in His Capture Kit) was immobilized on a sensor chip CM5 (GE Healthcare Japan, BR-1005-30) using a His Capture Kit (GE Healthcare Japan, 28-9950-56) and Amine Coupling Kit (GE Healthcare Japan, BR-1000-50). Flow path No. 1 is referred to as a reference, onto which the human TLR2 protein was not attached. Onto each of other flow paths (No. 2, No. 3, and No. 4), a human TLR2 protein (R&D Systems, 2616-TR-050) diluted to 0.66 μg/mL in HBS-EP+ buffer (GE Healthcare Japan, BR-1006-69) was added at a flow rate of 5 μL/minute for 2 minutes and then immobilized. Thereafter, a solution of fully human 31-5F5-2F3.m1 diluted to 200 nM in HBS-EP+buffer was added at a flow rate of 50 μL/minute for 2 minutes, and the fully human antibody-human TLR2 binding was measured. Next, HBS-EP+buffer was added at a flow rate of 50 μL/minute for 5 minutes and the dissociation of the fully human antibody and human TLR2 was measured. Bivalent analyte model and the Rmax were analyzed by Fit local to calculate the association rate constant (ka) and dissociation rate constant (kd), and the association-dissociation constant (KD) was calculated by dividing kd by ka.

[6] = molecular target: T1, human TLR2 endogenously expressed on …; test: cell-based or functional assay; remark: listed apart in the source

T3 sequence (O60603 21-590 limits assumed): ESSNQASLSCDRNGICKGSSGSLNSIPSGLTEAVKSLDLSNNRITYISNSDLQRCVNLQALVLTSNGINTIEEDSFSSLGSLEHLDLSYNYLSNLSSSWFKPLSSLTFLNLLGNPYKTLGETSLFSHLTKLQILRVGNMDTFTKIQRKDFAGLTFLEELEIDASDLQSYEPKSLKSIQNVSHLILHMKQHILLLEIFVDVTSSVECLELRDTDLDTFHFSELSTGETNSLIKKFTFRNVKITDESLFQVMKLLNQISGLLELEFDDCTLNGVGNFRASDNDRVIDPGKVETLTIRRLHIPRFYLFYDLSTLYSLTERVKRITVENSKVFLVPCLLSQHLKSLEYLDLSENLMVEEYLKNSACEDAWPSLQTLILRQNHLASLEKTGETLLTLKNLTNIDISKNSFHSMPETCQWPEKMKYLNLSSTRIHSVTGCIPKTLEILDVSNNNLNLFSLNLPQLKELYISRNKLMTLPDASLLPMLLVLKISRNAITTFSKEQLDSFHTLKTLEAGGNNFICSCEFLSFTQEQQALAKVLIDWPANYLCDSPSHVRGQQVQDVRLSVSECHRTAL
T1 sequence (O60603 21-784): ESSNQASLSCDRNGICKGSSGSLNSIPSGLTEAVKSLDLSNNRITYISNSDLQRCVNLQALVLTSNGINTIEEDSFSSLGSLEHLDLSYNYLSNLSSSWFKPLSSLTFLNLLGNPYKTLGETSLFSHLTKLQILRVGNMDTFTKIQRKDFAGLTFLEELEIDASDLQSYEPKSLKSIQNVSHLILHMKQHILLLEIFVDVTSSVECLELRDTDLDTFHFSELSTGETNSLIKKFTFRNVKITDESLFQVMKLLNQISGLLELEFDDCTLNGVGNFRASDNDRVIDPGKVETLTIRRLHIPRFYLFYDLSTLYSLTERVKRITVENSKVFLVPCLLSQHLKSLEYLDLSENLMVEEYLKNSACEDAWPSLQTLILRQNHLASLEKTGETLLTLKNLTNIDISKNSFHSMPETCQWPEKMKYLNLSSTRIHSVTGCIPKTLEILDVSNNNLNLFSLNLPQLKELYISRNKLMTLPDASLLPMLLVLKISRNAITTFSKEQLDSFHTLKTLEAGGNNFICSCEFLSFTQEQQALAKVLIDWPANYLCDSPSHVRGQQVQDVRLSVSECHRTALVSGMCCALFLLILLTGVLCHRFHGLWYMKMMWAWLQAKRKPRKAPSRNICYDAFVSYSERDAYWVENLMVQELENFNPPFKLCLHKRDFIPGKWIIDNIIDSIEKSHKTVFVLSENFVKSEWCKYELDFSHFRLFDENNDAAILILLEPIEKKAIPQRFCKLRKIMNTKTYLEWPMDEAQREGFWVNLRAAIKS
Sequence of human TLR4/MD2 endogenously expressed on normal human peripheral blood mononuclear cells (O00206 24-839, chain 1 of 2): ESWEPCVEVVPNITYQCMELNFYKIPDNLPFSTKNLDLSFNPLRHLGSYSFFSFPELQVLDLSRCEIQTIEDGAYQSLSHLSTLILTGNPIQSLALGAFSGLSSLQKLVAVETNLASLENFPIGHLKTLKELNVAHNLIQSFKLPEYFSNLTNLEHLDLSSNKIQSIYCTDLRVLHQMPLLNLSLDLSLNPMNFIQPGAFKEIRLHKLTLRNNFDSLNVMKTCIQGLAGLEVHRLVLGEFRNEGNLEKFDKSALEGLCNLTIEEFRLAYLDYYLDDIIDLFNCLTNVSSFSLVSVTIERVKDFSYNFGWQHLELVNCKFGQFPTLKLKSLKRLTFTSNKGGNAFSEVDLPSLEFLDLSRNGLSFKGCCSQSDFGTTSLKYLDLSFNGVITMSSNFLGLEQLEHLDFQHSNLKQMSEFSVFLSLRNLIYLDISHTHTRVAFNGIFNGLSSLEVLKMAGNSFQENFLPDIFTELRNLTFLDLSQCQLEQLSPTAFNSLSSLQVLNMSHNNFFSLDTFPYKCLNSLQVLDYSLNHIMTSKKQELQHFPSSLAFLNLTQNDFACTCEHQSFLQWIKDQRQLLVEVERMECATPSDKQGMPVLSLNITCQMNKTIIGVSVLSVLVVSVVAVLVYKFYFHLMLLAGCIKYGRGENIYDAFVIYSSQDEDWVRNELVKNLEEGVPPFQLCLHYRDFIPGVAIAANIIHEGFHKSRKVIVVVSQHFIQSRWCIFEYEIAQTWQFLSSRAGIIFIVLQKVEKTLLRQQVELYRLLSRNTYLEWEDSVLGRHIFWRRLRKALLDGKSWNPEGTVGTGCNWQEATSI
Sequence of human TLR4/MD2 endogenously expressed on normal human peripheral blood mononuclear cells (Q9Y6Y9 19-160, chain 2 of 2): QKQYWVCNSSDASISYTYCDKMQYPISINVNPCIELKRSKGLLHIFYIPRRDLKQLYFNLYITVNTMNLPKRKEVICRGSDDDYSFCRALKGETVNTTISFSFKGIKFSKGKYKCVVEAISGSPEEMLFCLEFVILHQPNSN
T2 sequence (O00206 24-631 limits assumed, chain 1 of 2): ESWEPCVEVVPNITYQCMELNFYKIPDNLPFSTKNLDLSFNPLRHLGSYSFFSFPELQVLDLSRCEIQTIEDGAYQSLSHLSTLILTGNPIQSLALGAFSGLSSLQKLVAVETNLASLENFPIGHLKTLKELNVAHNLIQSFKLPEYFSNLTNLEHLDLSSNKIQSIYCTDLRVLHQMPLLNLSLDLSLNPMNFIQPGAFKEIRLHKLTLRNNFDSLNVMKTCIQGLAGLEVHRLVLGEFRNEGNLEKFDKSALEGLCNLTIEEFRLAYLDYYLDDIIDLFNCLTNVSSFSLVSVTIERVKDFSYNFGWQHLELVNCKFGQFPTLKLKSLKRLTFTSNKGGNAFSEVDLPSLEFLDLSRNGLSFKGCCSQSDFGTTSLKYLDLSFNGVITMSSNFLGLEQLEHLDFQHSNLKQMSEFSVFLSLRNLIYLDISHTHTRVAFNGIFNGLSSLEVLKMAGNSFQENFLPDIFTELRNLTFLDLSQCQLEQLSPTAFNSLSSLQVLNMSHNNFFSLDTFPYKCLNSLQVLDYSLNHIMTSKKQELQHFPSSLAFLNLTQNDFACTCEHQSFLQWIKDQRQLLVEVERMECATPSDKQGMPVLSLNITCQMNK
T2 sequence (Q9Y6Y9 17-160 limits assumed, chain 2 of 2): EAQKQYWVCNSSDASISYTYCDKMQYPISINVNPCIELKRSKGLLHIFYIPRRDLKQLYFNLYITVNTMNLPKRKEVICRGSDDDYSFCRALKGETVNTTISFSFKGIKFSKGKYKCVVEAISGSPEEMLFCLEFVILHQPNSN

EC50 [3]: 0.522 nM | EC50 [4]: 0.21 nM
B1: fully human ICU-1-Igγ1-LAsh (bispecific antibody, human IgG1, kappa, L234A L235A)
heavy: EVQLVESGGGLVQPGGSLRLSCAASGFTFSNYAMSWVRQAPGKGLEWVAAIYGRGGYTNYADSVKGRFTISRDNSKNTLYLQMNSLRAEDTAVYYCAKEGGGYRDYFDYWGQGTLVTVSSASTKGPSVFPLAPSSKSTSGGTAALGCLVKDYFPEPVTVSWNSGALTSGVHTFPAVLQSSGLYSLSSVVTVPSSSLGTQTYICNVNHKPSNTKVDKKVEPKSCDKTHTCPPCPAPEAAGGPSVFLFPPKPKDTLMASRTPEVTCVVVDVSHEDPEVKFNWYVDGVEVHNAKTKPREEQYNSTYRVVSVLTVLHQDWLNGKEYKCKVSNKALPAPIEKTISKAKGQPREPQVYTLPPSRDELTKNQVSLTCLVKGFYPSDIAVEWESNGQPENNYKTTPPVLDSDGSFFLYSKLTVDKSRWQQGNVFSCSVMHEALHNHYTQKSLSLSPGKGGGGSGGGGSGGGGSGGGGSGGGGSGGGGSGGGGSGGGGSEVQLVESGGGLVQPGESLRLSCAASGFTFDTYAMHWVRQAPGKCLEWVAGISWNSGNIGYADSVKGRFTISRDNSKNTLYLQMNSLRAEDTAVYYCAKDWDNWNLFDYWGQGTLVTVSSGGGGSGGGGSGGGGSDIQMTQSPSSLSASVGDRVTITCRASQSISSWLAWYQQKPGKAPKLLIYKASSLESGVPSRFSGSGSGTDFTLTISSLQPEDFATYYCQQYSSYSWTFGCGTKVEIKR
light: DVQMTQSPSSLSASVGDRVTITCRSSQSLVFSDGNTYLNWFQQKPGKAPKRLIYKVSNRDSGVPSRFSGSGSGTDFTLTISSLQPEDFATYYCMQGAHWPLTFGQGTKVEIKRTVAAPSVFIFPPSDEQLKSGTASVVCLLNNFYPREAKVQWKVDNALQSGNSQESVTEQDSKDSTYSLSSTLTLSKADYEKHKVYACEVTHQGLSSPVTKSFNRGEC
notes: As fully human ICU-1-Igγ1, but with L234A, L235A and I253A (EU index) in the human Igγ1 constant region; also called IgG(TLR2)-scFv(TLR4) bispecific antibody with L234A, L235A and I253A
IC50 value, killed Pseudomonas aeruginosa-induced TNFα production on normal human peripheral blood mononuclear cells [1]: 0.0172 nM | IC50 value, killed Pseudomonas aeruginosa-induced TNFα production on normal human peripheral blood mononuclear cells [2]: 0.0172 nM

EC50 [3]: 0.493 nM | EC50 [4]: 0.15 nM
B2: fully human ICU-1-Igγ1 (bispecific antibody, human IgG1, kappa)
heavy: not shown
light: B1 light
notes: Tetravalent IgG-scFv: an anti-TLR4 scFv is joined by a GS linker to the C terminal of each heavy chain of the anti-TLR2 IgG1; also called IgG(TLR2)-scFv(TLR4) bispecific antibody
IC50 value, killed Pseudomonas aeruginosa-induced TNFα production on normal human peripheral blood mononuclear cells [1]: 0.04 nM | IC50 value, killed Pseudomonas aeruginosa-induced TNFα production on normal human peripheral blood mononuclear cells [2]: 0.04 nM

Kd [5]: 0.0885 nM | IC50 value against Pam2CSK4-induced AP production in THP1-xBlue cells [6]: 0.0977 nM and 0.13 nM
B3: fully human 31-5F5-2F3.m1 (antibody, human IgG1, kappa, V domains shown)
VH: EVQLVESGGGLVQPGGSLRLSCAASGFTFSNYAMSWVRQAPGKGLEWVAAIYGRGGYTNYADSVKGRFTISRDNSKNTLYLQMNSLRAEDTAVYYCAKEGGGYRDYFDYWGQGTLVTVSS
VL: DVQMTQSPSSLSASVGDRVTITCRSSQSLVFSDGNTYLNWFQQKPGKAPKRLIYKVSNRDSGVPSRFSGSGSGTDFTLTISSLQPEDFATYYCMQGAHWPLTFGQGTKVEIKR
notes: Human Igγ1 / human kappa constant regions; also called fully human anti-human TLR2 antibody; fully human antibody of 31-5F5-2F3.m1
